Patent US20210300985A1 (published 2021)

B1: SEQ ID NO: 6 (EKDIHSGLIGPLLI) (peptide)
peptide: EKDIHSGLIGPLLI
B2: SEQ ID NO: 7 (SHEFHAINGMIYSLP) (peptide)
peptide: SHEFHAINGMIYSLP
B3: SEQ ID NO: 5 (ESNIMSTINGYVPES) (peptide)
peptide: ESNIMSTINGYVPES
B4: SEQ ID NO: 3 (KIVFKNMASRPYSIY) (peptide)
peptide: KIVFKNMASRPYSIY

Experiments:
Assay in all cases: competition binding; FIG. 35A
HLA-DRB1*1501 = HLA-DRB1*1501 (human)
HLA-DRB1*0101 = HLA-DRB1*0101 (human)
HLA-DRB1*0701 = HLA-DRB1*0701 (human)
HLA-DRB1*0401 = HLA-DRB1*0401 (human)
HLA-DRB1*1101 = HLA-DRB1*1101 (human)
HLA-DRB1*1301 = HLA-DRB1*1301 (human)
HLA-DRB1*0301 = HLA-DRB1*0301 (human)

Binder | IC50 (HLA-DRB1*1501) | IC50 (HLA-DRB1*0101) | IC50 (HLA-DRB1*0701) | IC50 (HLA-DRB1*0401) | IC50 (HLA-DRB1*1101) | IC50 (HLA-DRB1*1301) | IC50 (HLA-DRB1*0301)
B1 | 2.02 µM | 1.92 µM |  |  |  |  | 
B2 | < 1 µM | < 1 µM | < 1 µM | 30.6 µM | 33.7 µM | 84.4 µM | 
B3 | 4.22 µM |  | 2.79 µM | 96.4 µM |  |  | 80.5 µM
B4 | 2.69 µM | 2.17 µM | 7.03 µM | 20.1 µM | 4.36 µM | 2.96 µM | 78.6 µM
